Experimental data as given in PMC11220700, “Activation and Purification of ß‐Glucocerebrosidase by Exploiting its Transporter LIMP‐2 – Implications for Novel Treatment Strategies in Gaucher's and Parkinson's Disease” (Advanced Science, 2024).

Tested on: wt GCase in HEK 293F supernatant
Experiment: GCase activity in supernatant of HEK 293F cells co‐expressing soluble LIMP‐2
Type: cell-based, human
Conditions: co‐expression with wt GCase, 0‐72 h after transfection, n = 3
Procedure: HEK 293F cells (ThermoFisher Scientific Inc., Waltham, MA, United States, #R79007) were cultivated in FreeStyle 293 expression medium (ThermoFisher Scientific Inc., Waltham, MA, United States, #12 338 018) in vented flat‐bottom Erlenmeyer flasks (ThermoFisher Scientific Inc., Waltham, MA, United States, #4115‐0125, #4115‐0250, #4115‐0500, #4115‐1000, #4115‐2000) on a MaxQ CO2 Plus orbital shaker (ThermoFisher Scientific Inc., Waltham, MA, United States, #88 881 102) at 125 rpm, 37 °C and 8% CO2. Regularly, the cell count was determined using a Cellometer Auto T4 Plus cell counter (Nexcelom Biocience LLC, Lawrence, Massachusetts, United States). […] For seeding, cells were counted and the desired cell number was transferred to 50 mL tubes. […]
Activity of GCase‐containing samples (recombinant protein, cell lysate, LE fractions, conditioned culture medium) was measured using the synthetic substrate 4‐methylumbelliferyl‐β‐D‐glucopyranoside (4MU, Merck Millipore, Billerica, MA, United States, #M3633). […] GCase activity was quantified via fluorescence of released 4‐methylumbelliferone (endpoint measurement) using an Infinite 200 Pro (TECAN, Männedorf, Switzerland), SpectraMax Gemini (Molecular Devices, San José, CA, United States) or ClarioStar (BMG LABTECH, Ortenberg, Germany) multiplate reader (λ ex: 365 nm; λ em: 445 nm). […]

B1: sLIMP‐2: secreted LIMP‐2 ectodomain, amino acids 36–431, N‐terminal IgK leader sequence, C‐terminal TEV‐cleavable 10xHis tag (protein)
chain: SIEKKIVLRNGTEAFDSWEKPPLPVYTQFYFFNVTNPEEILRGETPRVEEVGPYTYRELRNKANIQFGDNGTTISAVSNKAYVFERDQSVGDPKIDLIRTLNIPVLTVIEWSQVHFLREIIEAMLKAYQQKLFVTHTVDELLWGYKDEILSLIHVFRPDISPYFGLFYEKNGTNDGDYVFLTGEDSYLNFTKIVEWNGKTSLDWWITDKCNMINGTDGDSFHPLITKDEVLYVFPSDFCRSVYITFSDYESVQGLPAFRYKVPAEILANTSDNAGFCIPEGNCLGSGVLNVSICKNGAPIIMSFPHFYQADERFVSAIEGMHPNQEDHETFVDINPLTGIILKAAKRFQINIYVKKLDDFVETGDIRTMVFPVMYLNESVHIDKETASRLKSMINT
modifications: left off: Igκ leader sequence, N-terminal, state not stated | 10xHis (TEV-cleavable), C-terminal, kept
GCase activity in supernatant over time: GCase activity is higher and stable over the course of the measurements
